assay: yeast display, Sf9 membrane polyspecificity reagent, FACS + sequencing; frameworks hold sequencing errors
Summary of the method: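 Nanobodies came from a synthetic yeast display library in Saccharomyces cerevisiae BJ5465, induced with galactose for 36–48 hours and stained for 1 hour at 4 °C with 10% biotinylated, detergent-solubilized Sf9 membrane reagent. Cells were enriched on streptavidin microbeads and then FACS-sorted, with low and high (top ~1%) gates set on anti-HA fluorescence for expression and streptavidin fluorescence for reagent binding. Each polyreactivity label reflects the gate a clone came from. Genes were amplified by colony PCR, sequenced by MiSeq 2 × 250 and filtered by CDR length.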

| Sequence | polyreactivity (PSR sort gate) |
| --- | --- |
| QVHLVESGGGLVQAGGSLRLSCAATGSTFHYYAMGWYRQAPGKEMELVAAISSSGVSTYYADSVKGRFTISRDNAKNTVYLQMNSLKPEDTAVYYCNSASVFHYRWYYYWGHGTQVTVSS | high polyreactivity |
| QVHLVESGGGLVQAGGSLRLSCAAYGRIFPLYTMGWYRQAPGKEREFVAAISRTGGRTYYADSVKGRFTISRDNAKNTVYLQMNSLKPEDTAVYYCAAPYFGKRQIREYYWGQGTQVTVSS | high polyreactivity |
| QVHLVESGGGLVQAGGSLRLSCADYGSNLYYKAMGWYRQAPGKEMQVVAAISTGGRTNYADSVKGRFTISRDNAKNTVYLQMNSLKPEDSAVYYCAAETTTEITDTDYDYWGQGTQVTVSS | low polyreactivity |
| QVHLVESGGGLVQAGGSLRLSCAPSGFIFDYYTMGWYRQAPGKESELVAAITWSGGRTNYADSVKGRFTISRDNAKYTVYLQMNSLKPEDTAVYYCNARRRARGAPYYLYGYSGQGTQVTVSS | low polyreactivity |
| QVHLVESGGGLVQAGGSLRLSCAPSGRTFEQNAMGWYRQAPGKERELVASITSVGSTDYADSVKGRFTISRDNAKNTVYLQMNSLKPEDTAVYYCAKTLGSQKYDFDYWGQGTQVTVSS | low polyreactivity |
| QVHLVESGGGLVQAGGSLRLSCASSGGIFVTYAMGWYRQAPGKERELVAAITSGDSTYYADSVKGRFTISRDNAKNTVYLQMNSLKPEDTAVYYCAVGSTDRVSAQGSYFTYDYWGQGTQVTVSS | low polyreactivity |
| QVHLVESGGGLVQAGGSLRLSCASSGIIFKTYAMGWYRQAPGKERELVAAISSGGTTYYADSVKGRFTISRDNAKNTVYLQMNSLKPEDTAVYYCAARGYRSGGGYNYWGHGTQVTVSS | high polyreactivity |
| QVHLVESGGGLVQAGGSLRLSCASSGYIIKYNAMGWYRPAPGKERELVAAISSIGGRTYYADSVKGRFTISRDNAKNTVYLQMNRLKPEDTAVYYCNAVGGRYTGWRYDDWGQGTQVTVSS | high polyreactivity |
| QVHLVESGGGLVQAGGSLRLSCASTGFTFSRNTMGWYRQPPGKERELVARISASGGSTYYADSVKGRFTISRDNAKNTVYLQMNSLKPEDTAVYYCAAEGFYRSSPVRTYIGYDYWGQGSQVTVSS | high polyreactivity |
| QVHLVESGGGLVQAGGSLRLSCPASGFTFDNYAMGWYRQPPGKERELVAAINWSGGRTYYADSVKGRFTISRDNAKNTVYLQMNSLKPEDTAVYYCGVPGYVRMDYWGQGTQVTVSS | high polyreactivity |
| QVHLVESGGGLVQAGGSLRLSCPASGITFEHNAMGWYRQSPGKERELVAAIRWSGGSTYYADSVKGRFTISRDYAKYTVYLQMNSLKPEDTAVYYCAAYKPSTRRYDYWGQGTQVTVSS | high polyreactivity |
| QVHLVESGGGLVQAGGSLRLSCSASGFTFGSNAMGWYRQAPGKERELVAAINYSGLRTYYADSVKGRFTISRDNAKNTVYLQMNSLKPEDTAVYDCAARTSIVTRLRYGYWGQGTQVTVSS | high polyreactivity |
| QVHLVESGGGLVQAGGSLRLSCSASGRTFGWNVMGWYRQAPGKERELVAAISGSGGSTYYADSVKGRFTISRDNAKTTVYLQMNSLKPEDTAVYYCAALYGPGREYDYWGQGTQVTVSS | low polyreactivity |
| QVHLVESGGGLVQAGGSLRLSCSASGSTFNTYAMGWYRQAPGKERELVAAITRGGGGTYYADSVKGRFTISRDNAKNTVYLQMNSLKPEDTAVYYCADKFRYSKYGYWGQGTQVTVSS | high polyreactivity |
| QVHLVESGGGLVQAGGSLRLSCSASGSTFYAYAMGWYRQARGKERELVARIRWRGGRSYYADSVKGRFTISRDNAKNTVYLQMHSLKPEDTAVYYCAARLYGRYDSQDNYWGQGTQVTVSS | high polyreactivity |
| QVHLVESGGGLVQAGGSLRLSFAASGRTFLRYDMGCYIQAPGKERELVAADSVKGRFTISRDNAKNTVYLQMNSLKAEDPAVYYCAADSTEYTGDASYIGYDYWGQGTHVTVSS | high polyreactivity |

| Sequence | polyreactivity (PSR sort gate) |
| --- | --- |
| QVHLVESGGGLVQAGGSLRLSSAASGFTFPWYAMGWYRQAPGKERELVATITRGGSTYYADSVKGRFTISRDNAKNTVYLQMNSLKPEDTAVYYCAVTYWRYHSYSPYDYWGQGTQVTVSS | high polyreactivity |
| QVHLVESGGGLVQAGGSLRLSSAASGSIFYLNAMGWYRQAPGKERELVATISNGGSTNYADSVQGRFTISRDNAKNTVYLQMNSLKPEDTAVYYCDAASGGTVVGEGDYWGQGTQVTVSS | low polyreactivity |
| QVHLVESGGGLVQAGGSLRLSSAASGSTFPVYAMGWYRQAPGKERELVASISSGGSTYYADSVQGRFTISRDNAKNSVYFQKNSLKPEDTAVYYCAKDPWVDSFVIYDDWGQGTEVTVSS | low polyreactivity |
| QVHLVESGGGLVQAGGSLRLSSAASGSTFYKNAMGWYRQAPGKERELVAGISRRGGRTYYADSVKGRFTISRDNANNTVYLQMNSLKPEDTAVYYCNTGHEEDEYDYWGQGTQVTVSS | low polyreactivity |
| QVHLVESGGGLVQAGGSLRLSSAAYGRTFKYNAMGWYRQAPGKRKELVAAISSGGSTYYADSVKGRFTISRDNAKKTVYFQMNSLKPEDTAVYYCAVRNTKSYWFGYWGQGTQVTVSS | high polyreactivity |
| QVHLVESGGGLVQAGGSLRLTCAASGITLDGNAMGWYRQAPGKERELVAAITSGGGTNYADSVKGRFTISRDNAKNTVYLQMNSLKPVDTAVYYCCADKPNDGVGRLYDYWGQGTQVTVSS | low polyreactivity |
| QVHLVESGGGLVQAGGSLRLTCAASGLTFIRYAMGCYRQAPGKERELVAAISSYGGTTYYADSVKGRFTISRDKAKNTVYLQMISLKPEDTSVYYCAAVLTYYRGSTWTFSGFAYDHWGQGTQVTVSS | high polyreactivity |
| QVHLVESGGGLVQAGGSRRLSCAASGITYRFYTMGWYRQAPGKEREFVAAITYGVGRTDYADSVKGRFTISRDNAKNTVYLQMNSLNPEDTAVYYCAATWGYGYDYWGQGTQVTVSS | high polyreactivity |
| QVHLVESGGGLVQAGGSRRLSCAASGRTVARPAMGWYRQAPGKERELVATITIGGRTYYADSVKGRFTISRDNAKNTVYLQMNSLKPEDTAVYYCAKRISGYRGDYWGQGTQVTVSS | high polyreactivity |
| QVHLVESGGGLVQAGGTLRLRCAASGSIFCCNAMGWYRQAPGKERELVAAISTSGGTTYYADSVKGRFTISRDNAKNTVFLQMHSLKPEDTAVYYCAADVYSSRYLYDYWGHGTQVTVSS | low polyreactivity |
| QVHLVESGGGLVQAGRSLRLSCAASGFIFKPYAMVRYRQAPGKERELVAAITVNGGTTYYADSVKARFTISRDNAKNTVYLQMNSLKPEDTAVYYCNRGRPGGPSWYHYDYWGQGTQVTVSS | high polyreactivity |
| QVHLVESGGGLVQEGGSLRLSCAASGFTFDSYAMGWYRQAPGKERELVASISSSGSTNYADSVKGRFTISRDNAKNTVYLQMNSLKPEDTGVYYCAAESRYPFIYEYWGQGTQVTVSS | low polyreactivity |
| QVHLVESGGGLVQVGGSLRLSCAASGSIFRWYAMGWYRQAPGKERELVAAISSSVGRTYYADSVKGRFTISRDNAKNTVYLQMNSLKPEDTAVYYCAVRYSVVYGTYYYWGQGTKVTVSS | high polyreactivity |
| QVHLVESGGRLVQAGGSLRLSCAASGRTVVDNAMGWYRQAPGKESQLVAAISSGGTTNFADSVKGRFTISRDIAKNTVYLQMNSLKPEDTAVFYCNTVATYLRSGYGNWGQGTQVTVSS | low polyreactivity |
| QVHLVESGGVLVQAGGRHRISCAASGRTFIQNAMGWYRQAPGKERELVAAISWSGGSTYYADSVKGRFTISRDNAKNTVYLQMNSLKPADTAVSYCAAETYDYLFHTYEYWGQATQVTVSS | low polyreactivity |
| QVHLVESGRGLVQAGGSLRLSCAASGRTLYRYAMGWYRQAPGKERELVAAINQSGGRTYYADSVKGRFTISRDNAKNTVYFQMNSLKPEDTAVYYCAASPVRVGKVIDGRDYWGQGTQVTVSS | high polyreactivity |
